{
  "source": "paper PMC5362230",
  "about": "“MCPIP1, alias Regnase-1 binds and cleaves mRNA of C/EBPβ” (PLoS ONE, 2017)",
  "molecular_target": "the molecule itself",
  "assay": "native gel or EMSA; increasing amounts of purified protein (0-200 pmol) incubated with 2 pmol in vitro transcribed 3'UTR fragments of C/EBPβ mRNA; 25 mM Tris, 150 mM NaCl, 2.5 mM MgCl2, 2.5 mM DTT, 0.5 mM EDTA, 0.025 mM ZnCl2, pH 8.3; on ice 20 min; 0.8% agarose gel in TAE; oligomers read from heavier protein-RNA complexes",
  "data": [
    {"protein": "Full length human MCPIP1 (D141N) recombinant protein (enzyme, UniProt Q5D1E8 1-599, looked up, Monocyte chemoattractant protein-1-induced protein 1 (MCPIP1, Regnase-1), human, full length; point mutation D141N in the PIN domain abolishes RNase activity; also called Regnase-1 D141N; source: recombinant, purified) MSGPCGEKPVLEASPTMSLWEFEDSHSRQGTPRPGQELAAEEASALELQMKVDFFRKLGYSSTEIHSVLQKLGVQADTNTVLGELVKHGTATERERQTSPDPCPQLPLVPRGGGTPKAPNLEPPLPEEEKEGSDLRPVVINGSNVAMSHGNKEVFSCRGILLAVNWFLERGHTDITVFVPSWRKEQPRPDVPITDQHILRELEKKKILVFTPSRRVGGKRVVCYDDRFIVKLAYESDGIVVSNDTYRDLQGERQEWKRFIEERLLMYSFVNDKFMPPDDPLGRHGPSLDNFLRKKPLTLEHRKQPCPYGRKCTYGIKCRFFHPERPSCPQRSVADELRANALLSPPRAPSKDKNGRRPSPSSQSSSLLTESEQCSLDGKKLGAQASPGSRQEGLTQTYAPSGRSLAPSGGSGSSFGPTDWLPQTLDSLPYVSQDCLDSGIGSLESQMSELWGVRGGGPGEPGPPRAPYTGYSPYGSELPATAAFSAFGRAMGAGHFSVPADYPPAPPAFPPREYWSEPYPLPPPTSVLQEPPVQSPGAGRSPWGRAGSLAKEQASVYTKLCGVFPPHLVEAVMGRFPQLLDPQQLAAEILSYKSQHPSE", "values": [
      {"measurement": "binding result", "value": "binds"}
    ]}
  ]
}
